This test concerns the target nucleosome core particle assembled on a 149 bp long 601 DNA sequence (Xenopus laevis). Kind of test: cryo-EM micrographs and 2D classification; NCPs on 149 bp 601 DNA at 150 mM NaCl; particles with a second NCP in the proximity counted by 2D classification (Relion).

For “nucleosome core particle assembled on a 149 bp long 601 DNA sequence (complex)”, the percent of particles with a second NCP in the proximity stood at 20%.

The values are drawn from article PMC5935684.
